Assay [1] addresses T1, chimeric OX40 construct 1548: Human OX40 with mouse module 3 and domains 4A and 4B (aa 108-167) (human; mouse, UniProt P47741 104-165).
T1 construct: domain: module 3 and domains 4A and 4B; On 293-F cells; limits derived as for 1544
T1 sequence: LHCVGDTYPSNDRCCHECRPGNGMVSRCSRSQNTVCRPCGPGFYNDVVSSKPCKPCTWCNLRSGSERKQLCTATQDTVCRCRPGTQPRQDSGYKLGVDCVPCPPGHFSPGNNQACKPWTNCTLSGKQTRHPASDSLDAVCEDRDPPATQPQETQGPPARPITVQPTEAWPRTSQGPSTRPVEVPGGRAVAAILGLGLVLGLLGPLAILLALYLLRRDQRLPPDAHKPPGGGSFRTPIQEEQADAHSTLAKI
Briefly: flow cytometry, transfected 293-F cells. Here is the method:
(§1) The mouse/human chimeras were transiently transfected into FreeStyle 293-F cells (Invitrogen), incubated 48 hours in FreeStyle 293 expression medium (Invitrogen) 37 C, 8% CO₂, 135 rpm. The transfected cells were incubated with human OX40 antibodies, human OX40L (hOX40L, RnD Systems), mouse OX40L (mOX40L, RnD Systems) and controls for 30 min 4° C. and then detected with a-huIgG-PE (Jackson lmmunoresearch) 30 min 4° C. Cells were analyzed with FACS Verse (BD Biosciences). Binding to the different chimeric constructs were calculated as relative (mean fluorescence intensity) MFI compared to the binding of the isotype control.
For orientation: Flow cytometry measures light scatter and fluorescence of single cells or particles in a stream.

Assay [2] has as its target T2, chimeric OX40 construct 1545: Human OX40 with mouse domains 1B, 2A and 2B (aa 43-107) (human; mouse, UniProt P47741 39-103).
T2 construct: domain: 1B, 2A and 2B; On 293-F cells; limits derived as for 1544
T2 sequence: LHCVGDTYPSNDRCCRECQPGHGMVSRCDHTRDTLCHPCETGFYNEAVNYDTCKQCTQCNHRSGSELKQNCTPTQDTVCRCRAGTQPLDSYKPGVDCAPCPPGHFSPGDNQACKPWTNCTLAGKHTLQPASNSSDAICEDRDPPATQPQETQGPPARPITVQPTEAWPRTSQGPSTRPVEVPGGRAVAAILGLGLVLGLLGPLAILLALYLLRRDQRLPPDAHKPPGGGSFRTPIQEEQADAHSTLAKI
Nature of the assay: flow cytometry, transfected 293-F cells. The method, then:
as §1

The target in assay [3] is T3, chimeric OX40 construct 1546: Human OX40 with mouse domains 2A, 2B and module 3 (aa 66-126) (human; mouse, UniProt P47741 62-124).
T3 construct: domain: 2A, 2B and module 3; On 293-F cells; limits derived as for 1544
T3 sequence: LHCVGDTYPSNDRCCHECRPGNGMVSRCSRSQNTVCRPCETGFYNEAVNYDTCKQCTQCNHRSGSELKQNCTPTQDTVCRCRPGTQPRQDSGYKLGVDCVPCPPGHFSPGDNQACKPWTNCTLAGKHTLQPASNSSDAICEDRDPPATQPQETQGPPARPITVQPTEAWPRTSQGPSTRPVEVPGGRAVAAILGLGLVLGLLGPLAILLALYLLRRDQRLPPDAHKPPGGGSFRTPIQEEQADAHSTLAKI
Nature of the assay: flow cytometry, transfected 293-F cells. The method, then: as §1

In assay [4] the target is T4, chimeric OX40 construct 1547: Human OX40 with mouse domain 2B, module 3 and domain 4A (aa 83-141) (human; mouse, UniProt P47741 79-139).
T4 construct: domain: 2B, module 3 and domain 4A; On 293-F cells; limits derived as for 1544
T4 sequence: T3 sequence with E40G, T41P, E46D, A47V, N49S, Y50S, D51K, T52P, D111N
Nature of the assay: flow cytometry, transfected 293-F cells. The method, then:
as §1

Assay [5] concerns the target T5, construct 84: Construct containing the full length OX40 sequence (human, UniProt P43489 29-277).
T5 construct: On transiently transfected FreeStyle 293-F cells; also called human OX40 (full length, on 293-F cells)
T5 sequence: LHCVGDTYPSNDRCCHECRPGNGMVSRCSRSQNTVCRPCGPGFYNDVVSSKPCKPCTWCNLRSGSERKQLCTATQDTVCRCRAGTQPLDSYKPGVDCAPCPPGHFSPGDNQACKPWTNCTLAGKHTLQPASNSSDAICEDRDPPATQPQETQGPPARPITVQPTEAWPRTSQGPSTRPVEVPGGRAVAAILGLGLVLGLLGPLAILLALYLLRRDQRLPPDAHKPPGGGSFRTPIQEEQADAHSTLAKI
Briefly: flow cytometry, transfected 293-F cells. Here is the method: as §1

Assay [6] concerns the target T6, CTLA4-Fc (Fitzgerald, #30R-CD152) (human, UniProt P16410 38-152, biotinylated where used as soluble reagent in the inhibition ELISAs).
T6 construct: Bought reagent; also called human CTLA-4 (Fitzgerald); biotinylated-CTLA4
Nature of the assay: SPR (Biacore); ratio [Kd for CD28]/[Kd for CTLA-4]. Here is the method: Either CTLA4-Fc (Fitzgerald, #30R-CD152) or CD28-Fc (R&D Systems, 342-CD) was immobilized to the Biacore™ sensor chip, CM5, using conventional amine coupling. […] The association was followed for 3 minutes and the dissociation for 10 minutes. Regeneration was performed twice using 5 mM NaOH for 30 seconds. The kinetic parameters and the affinity constants were calculated using BIAevaluation 4.1 software (Table 1.3).

The target of assay [7] is T6, CTLA4-Fc (Fitzgerald, #30R-CD152). Nature of the assay: binding ELISA; ratio [EC50 for CD28-Fc]/[EC50 for CTLA4-Fc]. The method, then:
96-well flat bottom high binding plates (Greiner, #655074) were coated with either CTLA4-Fc (Fitzgerald, #30R-CD152) or CD28-Fc (R&D systems, 342-CD) by incubating overnight at 4° C. […] The plates were washed again and sample or controls (serially diluted 1/5 from 200-0.001 μg/ml) were added to the wells. The samples were incubated for 1 h at room temperature and then washed. Detection antibody, goat-anti-human IgG Fcγ-HRP (Jackson, #109-035-098) was added and the plates were subsequently developed using SuperSignal Pico Chemiluminescent substrate (Thermo Scientific, #37069) and detected with an Envision reader (Perkin Elmer). EC50 values were calculated for both CTLA4 and CD28. The binding ratio (EC50 binding ratio=[EC50 for CD28]÷[EC50 for CTLA-4]) was calculated for each polypeptide and is shown in Table 1.1.
A general note: In an ELISA, binding on a coated surface is turned into a signal by an enzyme label.

Residue numbers refer to the chain shown, from its start.

T6 sequence (P16410 38-152 limits assumed): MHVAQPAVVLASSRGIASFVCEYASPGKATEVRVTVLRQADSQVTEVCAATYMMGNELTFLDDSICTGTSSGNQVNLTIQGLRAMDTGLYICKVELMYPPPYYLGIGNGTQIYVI

B1: anti-OX40 antibody 1514/1515 (antibody, V domains shown)
VH: EVQLLESGGGLVQPGGSLRLSCAASGFTFGYYYMSWVRQAPGKGLEWVSGISSYGSYTYYADSVKGRFTISRDNSKNTLYLQMNSLRAEDTAVYYCARSGYSNWANSFDYWGQGTLVTVSS
VL: DIQMTQSPSSLSASVGDRVTITCRASQSISSYLNWYQQKPGKAPKLLIYAASSLQSGVPSRFSGSGSGTDFTLTISSLQPEDFATYYCQQGDYTLFTFGQGTKLEIK
notes: Tested as IgG
On to B1, for which, in assay [1], the “relative MFI compared to isotype control” value was 17.2.

B2: anti-OX40 antibody 1164/1135 (antibody, V domains shown)
VH: EVQLLESGGGLVQPGGSLRLSCAASGFTFYGSSMYWVRQAPGKGLEWVSGIYSSGGYTSYADSVKGRFTISRDNSKNTLYLQMNSLRAEDTAVYYCARGVPHGYFDYWGQGTLVTVSS
VL: not shown
notes: Tested as IgG
As to B2, the “relative MFI compared to isotype control” value turned out to be 37.3 in assay [2]; 0.9 in assay [3]; 1 in assay [4]; 1 in assay [1]; 27.5 in assay [5].

B3: anti-OX40 antibody 1490/1135 (antibody, V domains shown)
VH: EVQLLESGGGLVQPGGSLRLSCAASGFTFSSYAMSWVRQAPGKGLEWVSGISYYGGYTYYADSVKGRFTISRDNSKNTLYLQMNSLRAEDTAVYYCARYYPHHYIDYWGQGTLVTVSS
VL: not shown
notes: Tested as IgG
With B3, the “relative MFI compared to isotype control” value in assay [1] amounted to 1.1.

B4: human wild-type CD86 (monomeric soluble extracellular domain), sample 'Wild type' (ligand)
chain: APLKIQAYFNETADLPCQFANSQNQSLSELVVFWQDQENLVLNEVYLGKEKFDSVHSKYMGRTSFDSDSWTLRLHNLQIKDKGLYQCIIHHKKPTGMIRIHQMNSELSVLA
notes: also called wild type protein
B4: the Kd binding ratio in assay [6] was 1.6. Moreover, in assay [7], the EC50 binding ratio worked out at 3.4.

B5: CD86 mutant 910 (ligand)
chain: LKIQAYFNETADLPCQFANSQNQSLSELVVFWQDQENLVLNEVYLGKEKFDSVDSKYMGRTSFDSDSWTLRLHNLQIKDKGIYQCIIHHKKPTGMVKIHEMNSELSVLA
notes: Variant of the soluble extracellular domain of human CD86
Consider B5, for which the Kd binding ratio in assay [6] is 5.1. For the same molecule, in assay [7], the EC50 binding ratio is 7.7.

B6: CD86 mutant 906 (ligand)
chain: B5 chain with F7I, Q23L, K49R, I82F, M95L
notes: as for B5
With B6, in assay [6], the Kd binding ratio is 0.8. Further, the EC50 binding ratio in assay [7] worked out at 16.2.

B7: CD86 mutant 908 (ligand)
chain: B5 chain with D54H
notes: as for B5
Consider B7, for which the Kd binding ratio in assay [6] turned out to be 4.7. Further, in assay [7], the EC50 binding ratio was 6.2.

B8: CD86 mutant 901 (ligand)
chain: B5 chain with Q23L, S24T, D54H, I86V, V96I, A109T
notes: as for B5
Take B8: the Kd binding ratio in assay [6] worked out at 2.7. In assay [7], the EC50 binding ratio amounted to 17.2.

B9: CD86 mutant 904 (ligand)
chain: B5 chain with V29I, K49R, S52A, T93S, E100Q, N102D
notes: as for B5
For the molecule B9, the Kd binding ratio in assay [6] is 6.8. Besides, the EC50 binding ratio in assay [7] was found to be 12.2.

B10: CD86 mutant 938 (ligand)
chain: B5 chain with V39I, D54H, E100Q
notes: as for B5
Take B10: the Kd binding ratio in assay [6] was determined as 5.5. Also, the EC50 binding ratio in assay [7] was determined as 2.

B11: CD86 mutant 907 (ligand)
chain: B5 chain with D54H, I82L, V96I
notes: as for B5
In the case of B11, in assay [6], the Kd binding ratio was 5.6. Moreover, in assay [7], the EC50 binding ratio was 30.5.

B12: CD86 mutant 915 (ligand)
chain: B5 chain with V39I, I82F, T93S, M95L, V96I, E100Q, N102D
notes: as for B5
As to B12, in assay [6], the Kd binding ratio is 1.9. In addition, the EC50 binding ratio in assay [7] is 9.9.

B13: CD86 mutant 900 (ligand)
chain: B5 chain with I86V, T93S, M95L
notes: as for B5
On to B13, for which the EC50 binding ratio in assay [7] amounted to 3.5.

B14: anti-OX40 antibody 1166/1167 (antibody, V domains shown)
VH: EVQLLESGGGLVQPGGSLRLSCAASGFTFGGYYMSWVRQAPGKGLEWVSAISGSGGSTYYADSVKGRFTISRDNSKNTLYLQMNSLRAEDTAVYYCARYDYASMDYWGQGTLVTVSS
VL: DIQMTQSPSSLSASVGDRVTITCRASQSISSYLNWYQQKPGKAPKLLIYAASSLQSGVPSRFSGSGSGTDFTLTISSLQPEDFATYYCQQYYWYGLSTFGQGTKLEIK
notes: also called monospecific OX40 antibody
For the molecule B14, the “relative MFI compared to isotype control” value in assay [1] was 15.8.

B15: anti-OX40 antibody 1170/1171 (antibody, V domains shown)
VH: B14 VH with A50Y, S52P, A102Y, S103W
VL: B14 VL with Y91G, Y92H, W93G, Y94S, G95Y, L96P, S97H
notes: Tested as IgG
With B15, the “relative MFI compared to isotype control” value in assay [1] was 20.3.

These data come from US20200048358A1 (ALLIGATOR BIOSCIENCE, published 2020).
